Measurements as given in the supplement of paper PMC7877785.
± gives the uncertainty stated by the source.

Test: self-splicing fitness, log relative to wild type (ln ratio); higher = more splicing; Tetrahymena group I intron in knt gene, E. coli kanamycin selection, DiMSum; sequences stand for … in CUCUCU…GGAGGGAAAAGUUAUCAGGCAUGCACCUGGUAGCUAGUCUUUAAACCAAUAGAUUGCAUCGGUUUAAAAGGCAAGACCGUCAAAUUGCGGGAAAGGGGUCAACAGCCGUUCAGUACCAAGUCUCAGGGGAAACUUUGAGAUGGCCUUGCAAAGGGUAUGGUAAUAAGCUGACGGACAUGGUCCUAACCACGCAGCCAAGUCCUAAGUCAACAGAUCUUCUGUUGAUAUGGAUGCAGUUCACAGACUAAAUGUCGGUCGGGGAAGAUGUAUUCUUCUCAUAAGAUAUAGUCGGACCUCUCCUUAAUGGGAGCUAGCGGAUGAAGUGAUGCAACACUGGAGCCGCUGGGAACUAAUUUGUAUGCGAAAGUAUAUUGAUUAGUUUUGGAGUACUCGUGGUCG
Procedure, shortened: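 Fitness was computed with DiMSum as the error-weighted combination of replicate fold changes, kanamycin versus none, each normalised to wild type. The library randomised all eight intron nucleotides of the P1ex region, with the intron placed in the knt kanamycin-resistance gene on pET-22b(+) in E. coli BL21(DE3). Six replicate transformations were grown overnight at 37°C or 30°C on LB agar with or without 25 μg/mL kanamycin, plus 100 μg/mL carbenicillin, 50 μM IPTG and 0.2% rhamnose. Pooled colonies were amplicon-sequenced on an Illumina HiSeq 2500.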

Q: What does the source list for UAACAGCAAUAUUACGUAUA?
A: self-splicing fitness (ln) (30 °C): -1.4 ± 0.062; self-splicing fitness (ln) (37 °C): -0.86 ± 0.069

Q: Which results are given for UAACAGCAAUAUUACGUCGU?
A: self-splicing fitness (ln) (30 °C): -3.43 ± 0.14; self-splicing fitness (ln) (37 °C): -2.04 ± 0.12

Q: What does the source list for UAACAGCAAUAUUACGUGCA?
A: self-splicing fitness (ln) (30 °C): -0.792 ± 0.063; self-splicing fitness (ln) (37 °C): -0.445 ± 0.098

Q: Which results are given for UAACAGCAAUAUUACGUGGC?
A: self-splicing fitness (ln) (30 °C): -4.59 ± 0.29; self-splicing fitness (ln) (37 °C): -2.56 ± 0.23

Q: What does the source list for UAACAGCAAUAUUACGUGGG?
A: self-splicing fitness (ln) (30 °C): -4.35 ± 0.15; self-splicing fitness (ln) (37 °C): -2.75 ± 0.091

Q: With UAACAGCAAUAUUACGUUGC as the sequence, how does the “self-splicing fitness (ln)” value (37 °C) read?
A: -2.84 ± 0.25

Q: Which “self-splicing fitness (ln)” value (37 °C) does the source give for UAAGAGCAAUAUUACGAAAA here?
A: -2.26 ± 0.38

Q: With UAAGAGCAAUAUUACGAACA as the sequence, how does the “self-splicing fitness (ln)” value (30 °C) read?
A: -2.71 ± 0.42

Q: What about the “self-splicing fitness (ln)” value (37 °C) of the same sequence?
A: -1.26 ± 0.27

Q: For UAAGAGCAAUAUUACGAAUU, which “self-splicing fitness (ln)” value (30 °C) is on record?
A: -3.74 ± 0.43

Q: And the “self-splicing fitness (ln)” value (37 °C)?
A: -1.84 ± 0.49

Q: Which “self-splicing fitness (ln)” value (37 °C) does the source give for UAAGAGCAAUAUUACGCCGU here?
A: -2.26 ± 0.43

Q: With UAAGAGCAAUAUUACGCGAA as the sequence, how does the “self-splicing fitness (ln)” value (30 °C) read?
A: -2.74 ± 0.22

Q: And the “self-splicing fitness (ln)” value (37 °C)?
A: -1.6 ± 0.16

Q: With UAAGAGCAAUAUUACGCGAU as the sequence, how does the “self-splicing fitness (ln)” value (30 °C) read?
A: -3.86 ± 0.26

Q: What about the “self-splicing fitness (ln)” value (37 °C) of the same sequence?
A: -2.56 ± 0.24

Q: Which results are given for UAAGAGCAAUAUUACGCGGG?
A: self-splicing fitness (ln) (30 °C): -3.49 ± 0.37; self-splicing fitness (ln) (37 °C): -3.91 ± 0.36

Q: For UAAGAGCAAUAUUACGGAAU, which “self-splicing fitness (ln)” value (30 °C) is on record?
A: -3.52 ± 0.41

Q: And the “self-splicing fitness (ln)” value (37 °C)?
A: -2.14 ± 0.41

Q: For UAAGAGCAAUAUUACGGACU, which “self-splicing fitness (ln)” value (37 °C) is on record?
A: -2.75 ± 0.41

Q: Which “self-splicing fitness (ln)” value (37 °C) does the source give for UAAGAGCAAUAUUACGGCAC here?
A: -1.16 ± 0.48

Q: Which “self-splicing fitness (ln)” value (30 °C) does the source give for UAAGAGCAAUAUUACGGCUA here?
A: -1.03 ± 0.1

Q: And the “self-splicing fitness (ln)” value (37 °C)?
A: -0.141 ± 0.11

Q: Which “self-splicing fitness (ln)” value (30 °C) does the source give for UAAGAGCAAUAUUACGGGCA here?
A: -2.73 ± 0.26

Q: And the “self-splicing fitness (ln)” value (37 °C)?
A: -1.99 ± 0.24

Q: Which “self-splicing fitness (ln)” value (30 °C) does the source give for UAAGAGCAAUAUUACGGGCC here?
A: -2.08 ± 0.32

Q: What about the “self-splicing fitness (ln)” value (37 °C) of the same sequence?
A: -0.897 ± 0.3

Q: For UAAGAGCAAUAUUACGGGCG, which “self-splicing fitness (ln)” value (30 °C) is on record?
A: -2.73 ± 0.16

Q: What about the “self-splicing fitness (ln)” value (37 °C) of the same sequence?
A: -2.29 ± 0.19

Q: For UAAGAGCAAUAUUACGGUUG, which “self-splicing fitness (ln)” value (30 °C) is on record?
A: -3.21 ± 0.2

Q: And the “self-splicing fitness (ln)” value (37 °C)?
A: -1.87 ± 0.18

Q: Which “self-splicing fitness (ln)” value (30 °C) does the source give for UAAGAGCAAUAUUACGUGGA here?
A: -2.84 ± 0.28

Q: And the “self-splicing fitness (ln)” value (37 °C)?
A: -2.14 ± 0.3

Q: Which “self-splicing fitness (ln)” value (30 °C) does the source give for UAAGAGCAAUAUUACGUGUG here?
A: -2.99 ± 0.18

Q: And the “self-splicing fitness (ln)” value (37 °C)?
A: -1.4 ± 0.14

Q: For UAAGAGCAAUAUUACGUUCG, which “self-splicing fitness (ln)” value (30 °C) is on record?
A: -1.48 ± 0.11

Q: What about the “self-splicing fitness (ln)” value (37 °C) of the same sequence?
A: -0.784 ± 0.14

Q: For UAAGAGCAAUAUUACGUUCU, which “self-splicing fitness (ln)” value (30 °C) is on record?
A: -3.45 ± 0.28

Q: What about the “self-splicing fitness (ln)” value (37 °C) of the same sequence?
A: -1.55 ± 0.19

Q: For UAAUAGCAAUAUUACGAAUC, which “self-splicing fitness (ln)” value (30 °C) is on record?
A: -4.21 ± 0.31

Q: And the “self-splicing fitness (ln)” value (37 °C)?
A: -2.34 ± 0.39

Q: For UAAUAGCAAUAUUACGACGG, which “self-splicing fitness (ln)” value (30 °C) is on record?
A: -1.51 ± 0.11

Q: And the “self-splicing fitness (ln)” value (37 °C)?
A: -0.463 ± 0.13

Q: Which “self-splicing fitness (ln)” value (37 °C) does the source give for UAAUAGCAAUAUUACGAGAG here?
A: -2.68 ± 0.3

Q: With UAAUAGCAAUAUUACGAGUG as the sequence, how does the “self-splicing fitness (ln)” value (30 °C) read?
A: -1.11 ± 0.08

Q: And the “self-splicing fitness (ln)” value (37 °C)?
A: -0.572 ± 0.09

Q: Which results are given for UAAUAGCAAUAUUACGCACA?
A: self-splicing fitness (ln) (30 °C): -0.694 ± 0.14; self-splicing fitness (ln) (37 °C): -0.0269 ± 0.15

Q: Which results are given for UAAUAGCAAUAUUACGCAGU?
A: self-splicing fitness (ln) (30 °C): -3.55 ± 0.37; self-splicing fitness (ln) (37 °C): -2.1 ± 0.34

Q: For UAAUAGCAAUAUUACGCCCU, which “self-splicing fitness (ln)” value (30 °C) is on record?
A: -1.59 ± 0.4

Q: What about the “self-splicing fitness (ln)” value (37 °C) of the same sequence?
A: -0.36 ± 0.38

Q: What does the source list for UAAUAGCAAUAUUACGCGCG?
A: self-splicing fitness (ln) (30 °C): -0.452 ± 0.11; self-splicing fitness (ln) (37 °C): -0.333 ± 0.14

Q: Which “self-splicing fitness (ln)” value (30 °C) does the source give for UAAUAGCAAUAUUACGCGGC here?
A: -2.97 ± 0.36

Q: What about the “self-splicing fitness (ln)” value (37 °C) of the same sequence?
A: -2.34 ± 0.37

Q: What does the source list for UAAUAGCAAUAUUACGCGUA?
A: self-splicing fitness (ln) (30 °C): -1.85 ± 0.14; self-splicing fitness (ln) (37 °C): -0.713 ± 0.12

Q: With UAAUAGCAAUAUUACGCUAU as the sequence, how does the “self-splicing fitness (ln)” value (30 °C) read?
A: -2.93 ± 0.19

Q: What about the “self-splicing fitness (ln)” value (37 °C) of the same sequence?
A: -1.85 ± 0.21

Q: With UAAUAGCAAUAUUACGCUGG as the sequence, how does the “self-splicing fitness (ln)” value (30 °C) read?
A: -1.95 ± 0.14

Q: And the “self-splicing fitness (ln)” value (37 °C)?
A: -1.85 ± 0.16

Q: For UAAUAGCAAUAUUACGCUGU, which “self-splicing fitness (ln)” value (30 °C) is on record?
A: -3.69 ± 0.28

Q: And the “self-splicing fitness (ln)” value (37 °C)?
A: -0.659 ± 0.17

Q: For UAAUAGCAAUAUUACGGCAC, which “self-splicing fitness (ln)” value (30 °C) is on record?
A: -2.86 ± 0.22

Q: What about the “self-splicing fitness (ln)” value (37 °C) of the same sequence?
A: -1.48 ± 0.19

Q: With UAAUAGCAAUAUUACGGUGC as the sequence, how does the “self-splicing fitness (ln)” value (37 °C) read?
A: -1.98 ± 0.36
